Measured values as given in patent publication US20170212130A1 (ROCKEFELLER UNIVERSITY, published 2017).
Like-named read-outs stand apart in the source and are kept apart here.

Columns and labels:
[1] = biological target: T1, DsRed (Discosoma sp., UniProt Q9U6Y8 1-225); assay: bead binding: nanobody-Dynabeads + fluorescent protein, eluate on SDS-PAGE
T1 construct: Recombinant fluorescent protein; construct not described; also called standard DsRed; DsRed from Discosoma (Ds)

[2] = biological target: T2, GFP-His6 (eGFP) (Aequorea victoria, UniProt P42212 2-238 = GFP); assay: SPR, GFP immobilized
T2 construct: SPR and bead assays speak only of recombinant GFP or eGFP; also called recombinant GFP; A. victoria (Av) GFP

[3] = biological target: T2, GFP-His6 (eGFP); assay: equilibrium bead binding: LaG-Dynabeads + 0.8-400 nM GFP, Coomassie band density fit
[4] = biological target: T2, GFP-His6 (eGFP); assay: bead binding assay (footnote 1)
[5] = biological target: T2, GFP-His6 (eGFP); assay: SPR, GFP immobilized, Langmuir fit; unit inferred
[6] = biological target: T2, GFP-His6 (eGFP); assay: label under gel lane; legend: in vitro Kd for GFP by SPR
[7] = biological target: T2, GFP-His6 (eGFP); assay: as above; remark: listed apart in the source
[8] = biological target: T2, GFP-His6 (eGFP); assay: SPR, GFP immobilized, Langmuir fit; no unit printed [continued]
[9] = biological target: T3, GFPuv (Aequorea victoria, UniProt P42212 1-229 = GFP, limits assumed); assay: NMR, 15N-1H HSQC of 15N-GFPuv with 1-1.2 molar excess of LaG
T3 construct: 15N-labeled for NMR; also called GFPuv variant; 15N-labeled GFPuv

[10] = biological target: T4, mCherry (Discosoma); assay: SPR, mCherry immobilized, Langmuir fit; unit inferred
T4 construct: Immunogen is mCherry-His6; SPR says recombinant mCherry; also called recombinant mCherry-His6; Discosoma mCherry

[11] = biological target: T4, mCherry; assay: label under gel lane; legend: in vitro Kd for mCherry by SPR
[12] = biological target: T4, mCherry; assay: SPR, mCherry immobilized
[13] = biological target: T2, GFP-His6 (eGFP); assay: bead binding: nanobody-Dynabeads + fluorescent protein, eluate on SDS-PAGE
[14] = biological target: T1, DsRed; assay: as above; remark: listed apart in the source
[15] = biological target: T2, GFP-His6 (eGFP); assay: method not named in the sentence (in vitro Kd by SPR per FIG. 3 legend)
[16] = biological target: T5, GFP-His6 (eGFP) (Aequorea victoria, UniProt P42212 2-238 = GFP); assay: SPR, GFP immobilized
[17] = biological target: T5, GFP-His6 (eGFP); assay: SPR, GFP immobilized; reference LaG-16 or LaG-2 alone

T1 sequence (Q9U6Y8 whole entry): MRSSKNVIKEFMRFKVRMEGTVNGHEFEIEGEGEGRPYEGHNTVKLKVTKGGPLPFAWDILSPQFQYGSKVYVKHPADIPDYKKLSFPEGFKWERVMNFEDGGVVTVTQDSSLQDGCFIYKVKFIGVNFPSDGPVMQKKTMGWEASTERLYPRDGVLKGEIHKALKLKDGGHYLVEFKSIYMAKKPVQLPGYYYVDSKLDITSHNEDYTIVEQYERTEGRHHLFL

B1: LaG-2 (VHH)
VHH: QVQLVESGGGLVQAGGSLRLSCAASGRTFSNYAMGWFRQAPGKEREFVAAISWTGVSTYYADSVKGRFTISRDNDKNTVYVQMNSLIPEDTAIYYCAAVRARSFSDTYSRVNEYDYWGQGTQVTV
notes: that range is inconsistent in itself; not shown: PreScission Protease cleavage site and C-terminal 6xHis tag
In the case of B1, the binding result [1] is reported as “no binding”, the Kd [2] is reported as 16 nM and the Kd [3] is reported as 19 nM. The Kd [4] was 19 nM.

B2: LaG-9 (VHH)
VHH: DVQLVESGGGLVQAGGSLRLSCAASGRTFSTSAMGWFRQAPGKEREFVARITWSAGYTAYSDSVKGRFTISRDKAKNTVYLQMNSLKPEDTAVYYCASRSAGYSSSLTRREDYAYWGQGTQVTVS
With B2 the binding result [1] was “no binding”, the Kd [5] was 3.5 nM and the Kd [2] was 3.5 nM. For the same binder, the Kd [6] was 3.5 nM and the Kd [7] was 3.5 nM.

B3: LaG-24 (VHH)
VHH: DVQLVESGGGLVQPGGSLRLSCAASGEIASIIAIGWYRQAPGKQRESVALITRSGMITYGDSAQGRFTISRDDAKNTVYLHMDDLVPEDTAVYYCNAKKVSFGDYWGQGTQVTVS
In the case of B3, the Kd [8] is reported as 41 nM, the binding result [1] is reported as “no binding” and the binding result [9] is reported as “no binding”. For the same binder, the Kd [2] was 41 nM, the Kd [6] was 35 nM and the Kd [7] was 35 nM.

B4: LaM-8 (VHH)
VHH: QVQLVESGGGLVQAGGSLRLSCAVSGRPFSEYNLGWFRQAPGKEREFVARIRSSGTTVYTDSVKGRFSASRDNAKNMGYLQLNSLEPEDTAVYYCAMSRVDTDSPAFYDYWGQGTQVTVST
B4 gave a Kd [10] of 63 nM, a Kd [11] of 63 nM and a Kd [12] of 63 nM. B4: no binding [13]; no binding [14].

B5: LaG-41 (VHH)
VHH: DVQLVESGGGLVQAGGSLRLSCAASGPTGAMAWFRQAPGKEREFVGGISGSETDTYYVDSVKGRFTVDRDNVKNTVYLQMNSLKPEDTAVYYCAARRRITLFTSRTDYDFWGRGTQVTV
In the case of B5, the binding result [1] is reported as “no binding” and the Kd [15] is reported as 0.9 nM.

B6: LaG16-LaG2 fusion with a flexible glycine-rich linker (G4S) (other)
chain: MAQVQLVESGGRLVQAGDSLRLSCAASGRTFSTSAMAWFRQAPGREREFVAAITWTVGNTILGDSVKGRFTISRDRAKNTVDLQMDNLEPEDTAVYYCSARSRGYVLSVLRSVDSYDYWGQGTQVTVSGGGGSMAQVQLVESGGGLVQAGGSLRLSCAASGRTFSNYAMGWFRQAPGKEREFVAAISWTGVSTYYADSVKGRFTISRDNDKNTVYVQMNSLIPEDTAIYYCAAVRARSFSDTYSRVNEYDYWGQGTQVTV
With B6 the Kd [16] was 0.036 nM and the “fold lower Kd than either LaG alone” value [17] was ~20 fold.
